pKd: −log10 of the molar value.
Columns and labels:
[1] = target: Recombinant soluble human FcRn (human) (UniProt P55899); experiment: SPR (BIAcore X100), FcRn immobilised, pH 6.0
[2] = target: FcRn-p3 (fusion protein of β2 microglobulin chain and FcRn α-chain fused to bacteriophage protein p3 and CVDE protein) (UniProt P61769); experiment: ELISA, purified IgG from YB2/0, vs R593 IgG-WT
[3] = target: FcγRIIaH131 (PX Therapeutics, His-tagged) (human) (UniProt P12318); experiment: ELISA, purified IgG from YB2/0, vs R593 IgG-WT
[4] = target: FcγRIIb (R&D system) (human) (UniProt P31994); experiment: ELISA, purified IgG from YB2/0, vs R593 IgG-WT
[5] = target: FcγRIIaR131 (R&D system) (human) (UniProt P12318); experiment: ELISA, purified IgG from YB2/0, vs R593 IgG-WT
[6] = target: FcγRIIIaF158 (PX Therapeutics, His-tagged) (human) (UniProt P08637); experiment: ELISA, purified IgG from YB2/0, vs R593 IgG-WT
[7] = target: FcγRI (R&D system) (human) (UniProt P12314); experiment: ELISA, purified IgG from YB2/0, vs R593 IgG-WT
[8] = target: FcγRIIIaV158 (R&D system) (human) (UniProt P08637); experiment: ELISA, purified IgG from YB2/0, vs R593 IgG-WT
[9] = target: Recombinant soluble human FcRn (human) (UniProt P55899); experiment: SPR, FcRn immobilised, pH 6.0; reference R593
Fcγ receptors = experiment: cell-based or functional assay
[10] = target: FcRn-p3 (fusion protein of β2 microglobulin chain and FcRn α-chain fused to bacteriophage protein p3 and CVDE protein) (UniProt P61769); experiment: ELISA, purified IgG from YB2/0, vs parent R593-256N/378V/383N/434Y
[11] = target: FcγRIIaH131 (PX Therapeutics, His-tagged) (human) (UniProt P12318); experiment: as above
[12] = target: FcγRIIb (R&D system) (human) (UniProt P31994); experiment: as above
[13] = target: FcγRIIaR131 (R&D system) (human) (UniProt P12318); experiment: as above
[14] = target: FcγRIIIaF158 (PX Therapeutics, His-tagged) (human) (UniProt P08637); experiment: as above
[15] = target: FcγRI (R&D system) (human) (UniProt P12314); experiment: as above
[16] = target: FcγRIIIaV158 (R&D system) (human) (UniProt P08637); experiment: as above
[17] = target: RhD antigen on RhD+ red blood cells (UniProt Q02161); experiment: flow cytometry on RhD+ red blood cells
[18] = target: FcRn-p3 (fusion protein of β2 microglobulin chain and FcRn α-chain fused to bacteriophage protein p3 and CVDE protein) (UniProt P61769); experiment: ELISA, purified IgG from YB2/0, vs parent R593-259I/315D/434Y
[19] = target: FcγRIIaH131 (PX Therapeutics, His-tagged) (human) (UniProt P12318); experiment: as above
[20] = target: FcγRIIb (R&D system) (human) (UniProt P31994); experiment: as above
[21] = target: FcγRIIaR131 (R&D system) (human) (UniProt P12318); experiment: as above
[22] = target: FcγRIIIaF158 (PX Therapeutics, His-tagged) (human) (UniProt P08637); experiment: as above
[23] = target: FcγRI (R&D system) (human) (UniProt P12314); experiment: as above
[24] = target: FcγRIIIaV158 (R&D system) (human) (UniProt P08637); experiment: as above
[25] = target: FcRn-p3 (fusion protein of β2 microglobulin chain and FcRn α-chain fused to bacteriophage protein p3 and CVDE protein) (UniProt P61769); experiment: ELISA, purified IgG from YB2/0, vs parent R603-259I/315D/434Y
[26] = target: FcγRIIaH131 (PX Therapeutics, His-tagged) (human) (UniProt P12318); experiment: as above
[27] = target: FcγRIIb (R&D system) (human) (UniProt P31994); experiment: as above
[28] = target: FcγRIIaR131 (R&D system) (human) (UniProt P12318); experiment: as above
[29] = target: FcγRIIIaF158 (PX Therapeutics, His-tagged) (human) (UniProt P08637); experiment: as above
[30] = target: FcγRI (R&D system) (human) (UniProt P12314); experiment: as above
[31] = target: FcγRIIIaV158 (R&D system) (human) (UniProt P08637); experiment: as above
[32] = target: FcRn-p3 (fusion protein of β2 microglobulin chain and FcRn α-chain fused to bacteriophage protein p3 and CVDE protein) (UniProt P61769); experiment: ELISA, 293-F supernatant, vs R603 IgG-WT
[33] = target: FcγRIIb (R&D system) (human) (UniProt P31994); experiment: ELISA, 293-F supernatant, vs R603 IgG-WT
[34] = target: C1q complement (Calbiochem) (UniProt P02745); experiment: ELISA, 293-F supernatant, vs R603 IgG-WT
[35] = target: FcγRIIaR131 (R&D system) (human) (UniProt P12318); experiment: ELISA, 293-F supernatant, vs R603 IgG-WT
[36] = target: FcγRI (R&D system) (human) (UniProt P12314); experiment: ELISA, 293-F supernatant, vs R603 IgG-WT
[37] = target: FcγRIIIaV158 (R&D system) (human) (UniProt P08637); experiment: ELISA, 293-F supernatant, vs R603 IgG-WT
[38] = target: T1, CD20 antigen on Raji lymphoblastoid B cells (UniProt P11836); experiment: flow cytometry on Raji cells
T1 sequence (looked up): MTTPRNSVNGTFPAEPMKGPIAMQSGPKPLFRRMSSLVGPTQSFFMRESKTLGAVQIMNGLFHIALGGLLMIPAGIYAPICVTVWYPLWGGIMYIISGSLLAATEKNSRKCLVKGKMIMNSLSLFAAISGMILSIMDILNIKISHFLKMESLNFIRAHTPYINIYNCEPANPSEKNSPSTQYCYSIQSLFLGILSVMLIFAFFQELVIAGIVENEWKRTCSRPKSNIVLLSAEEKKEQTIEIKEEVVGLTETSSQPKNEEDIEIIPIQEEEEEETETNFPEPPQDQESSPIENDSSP

[39] = target: Recombinant soluble human FcRn (human) (UniProt P55899); experiment: SPR, FcRn immobilised, pH 6.0; reference R603
[40] = target: FcRn-p3 (fusion protein of β2 microglobulin chain and FcRn α-chain fused to bacteriophage protein p3 and CVDE protein) (UniProt P61769); experiment: ELISA, purified IgG from YB2/0, vs R603 IgG-WT
[41] = target: FcγRIIaH131 (PX Therapeutics, His-tagged) (human) (UniProt P12318); experiment: ELISA, purified IgG from YB2/0, vs R603 IgG-WT
[42] = target: FcγRIIb (R&D system) (human) (UniProt P31994); experiment: ELISA, purified IgG from YB2/0, vs R603 IgG-WT
[43] = target: FcγRIIaR131 (R&D system) (human) (UniProt P12318); experiment: ELISA, purified IgG from YB2/0, vs R603 IgG-WT
[44] = target: FcγRIIIaF158 (PX Therapeutics, His-tagged) (human) (UniProt P08637); experiment: ELISA, purified IgG from YB2/0, vs R603 IgG-WT
[45] = target: FcγRI (R&D system) (human) (UniProt P12314); experiment: ELISA, purified IgG from YB2/0, vs R603 IgG-WT
[46] = target: FcγRIIIaV158 (R&D system) (human) (UniProt P08637); experiment: ELISA, purified IgG from YB2/0, vs R603 IgG-WT
[47] = target: FcRn-p3 (fusion protein of β2 microglobulin chain and FcRn α-chain fused to bacteriophage protein p3 and CVDE protein) (UniProt P61769); experiment: ELISA, 293-F supernatant, vs parent 259I/315D/434Y
[48] = target: FcγRIIb (R&D system) (human) (UniProt P31994); experiment: ELISA, 293-F supernatant, vs parent 259I/315D/434Y
[49] = target: C1q complement (Calbiochem) (UniProt P02745); experiment: ELISA, 293-F supernatant, vs parent 259I/315D/434Y
[50] = target: FcγRIIaR131 (R&D system) (human) (UniProt P12318); experiment: ELISA, 293-F supernatant, vs parent 259I/315D/434Y
[51] = target: FcγRI (R&D system) (human) (UniProt P12314); experiment: ELISA, 293-F supernatant, vs parent 259I/315D/434Y
[52] = target: FcγRIIIaV158 (R&D system) (human) (UniProt P08637); experiment: ELISA, 293-F supernatant, vs parent 259I/315D/434Y

Sequence of FcγRIIIaF158 (PX Therapeutics, His-tagged) (human) (P08637 17-208 limits assumed): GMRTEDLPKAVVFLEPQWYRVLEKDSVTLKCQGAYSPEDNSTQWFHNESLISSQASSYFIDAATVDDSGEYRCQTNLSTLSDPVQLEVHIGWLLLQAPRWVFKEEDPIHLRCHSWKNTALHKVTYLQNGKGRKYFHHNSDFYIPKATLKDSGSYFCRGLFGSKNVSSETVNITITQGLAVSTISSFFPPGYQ
Sequence of FcRn-p3 (fusion protein of β2 microglobulin chain and FcRn α-chain fused to bacteriophage protein p3 and CVDE protein) (P61769 21-119, chain 1 of 2): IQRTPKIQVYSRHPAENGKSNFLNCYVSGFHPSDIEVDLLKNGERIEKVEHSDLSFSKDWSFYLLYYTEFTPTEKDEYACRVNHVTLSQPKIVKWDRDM
Sequence of FcRn-p3 (fusion protein of β2 microglobulin chain and FcRn α-chain fused to bacteriophage protein p3 and CVDE protein) (P55899 24-290, chain 2 of 2, further chain): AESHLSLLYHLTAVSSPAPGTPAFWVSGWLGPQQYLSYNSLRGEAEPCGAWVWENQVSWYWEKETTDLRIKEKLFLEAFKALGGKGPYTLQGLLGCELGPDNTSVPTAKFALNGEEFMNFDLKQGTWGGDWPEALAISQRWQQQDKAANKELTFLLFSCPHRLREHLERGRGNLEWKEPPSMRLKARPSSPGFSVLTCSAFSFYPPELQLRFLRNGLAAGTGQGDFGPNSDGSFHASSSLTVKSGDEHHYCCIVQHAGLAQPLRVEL
Sequence of FcγRIIaH131 (PX Therapeutics, His-tagged) (human) (P12318 34-217 limits assumed): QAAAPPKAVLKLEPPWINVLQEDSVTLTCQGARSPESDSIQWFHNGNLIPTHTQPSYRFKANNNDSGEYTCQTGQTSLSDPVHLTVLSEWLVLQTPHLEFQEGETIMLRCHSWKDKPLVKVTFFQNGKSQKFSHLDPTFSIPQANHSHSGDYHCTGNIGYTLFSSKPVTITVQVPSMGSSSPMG
Sequence of FcγRIIb (R&D system) (human) (P31994 46-217 limits assumed): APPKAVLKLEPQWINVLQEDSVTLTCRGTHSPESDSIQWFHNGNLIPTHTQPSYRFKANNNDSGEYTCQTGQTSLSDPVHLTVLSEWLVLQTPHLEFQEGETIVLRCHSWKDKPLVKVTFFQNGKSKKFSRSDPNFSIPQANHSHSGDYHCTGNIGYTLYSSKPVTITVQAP
Sequence of FcγRIIaR131 (R&D system) (human) (P12318 36-218 H167R limits assumed): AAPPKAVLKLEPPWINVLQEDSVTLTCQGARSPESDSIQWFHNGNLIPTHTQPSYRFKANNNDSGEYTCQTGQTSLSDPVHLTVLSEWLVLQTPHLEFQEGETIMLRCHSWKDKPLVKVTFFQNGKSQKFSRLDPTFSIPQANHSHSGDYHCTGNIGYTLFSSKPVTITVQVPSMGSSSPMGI
Sequence of Recombinant soluble human FcRn (human) (P55899 24-290 limits assumed, chain 1 of 2): as the sequence (P55899 24-290, chain 2 of 2, further chain) above
Sequence of Recombinant soluble human FcRn (human) (P61769 21-119 limits assumed, chain 2 of 2, further chain): as the sequence (P61769 21-119, chain 1 of 2) above
Sequence of FcγRIIIaV158 (R&D system) (human) (P08637 17-208 F176V limits assumed): as the sequence (P08637 17-208 limits assumed) above, with F160V counted along it
Sequence of FcγRI (R&D system) (human) (P12314 16-288 limits assumed): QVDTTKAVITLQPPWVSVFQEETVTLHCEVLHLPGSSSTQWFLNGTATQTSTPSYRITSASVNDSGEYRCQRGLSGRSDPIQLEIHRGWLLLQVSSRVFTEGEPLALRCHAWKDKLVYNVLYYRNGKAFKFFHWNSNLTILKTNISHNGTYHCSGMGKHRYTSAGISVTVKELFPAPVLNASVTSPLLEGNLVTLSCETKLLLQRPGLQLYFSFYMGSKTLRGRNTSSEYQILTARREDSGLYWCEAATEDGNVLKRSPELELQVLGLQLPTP
Sequence of RhD antigen on RhD+ red blood cells (Q02161 2-417 limits assumed): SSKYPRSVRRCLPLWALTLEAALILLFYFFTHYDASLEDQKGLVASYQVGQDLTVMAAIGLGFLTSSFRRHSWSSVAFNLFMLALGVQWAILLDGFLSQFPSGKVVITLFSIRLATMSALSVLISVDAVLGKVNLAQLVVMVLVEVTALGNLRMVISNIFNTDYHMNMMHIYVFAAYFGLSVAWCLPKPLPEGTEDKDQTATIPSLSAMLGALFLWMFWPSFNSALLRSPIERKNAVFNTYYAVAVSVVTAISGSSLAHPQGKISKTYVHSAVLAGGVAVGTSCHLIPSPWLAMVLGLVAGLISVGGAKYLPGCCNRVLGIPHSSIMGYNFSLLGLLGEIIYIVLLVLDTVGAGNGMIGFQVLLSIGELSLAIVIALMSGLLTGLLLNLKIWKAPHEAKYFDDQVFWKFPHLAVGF
Sequence of C1q complement (Calbiochem) (P02745 23-245, chain 1 of 3): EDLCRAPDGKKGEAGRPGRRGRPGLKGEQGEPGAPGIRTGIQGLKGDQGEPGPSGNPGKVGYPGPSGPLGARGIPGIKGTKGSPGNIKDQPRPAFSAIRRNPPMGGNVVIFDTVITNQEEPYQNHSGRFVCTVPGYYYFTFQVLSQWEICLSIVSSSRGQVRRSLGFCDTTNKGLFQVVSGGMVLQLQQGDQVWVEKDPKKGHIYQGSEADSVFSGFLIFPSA
Sequence of C1q complement (Calbiochem) (P02746 28-253, chain 2 of 3, further chain): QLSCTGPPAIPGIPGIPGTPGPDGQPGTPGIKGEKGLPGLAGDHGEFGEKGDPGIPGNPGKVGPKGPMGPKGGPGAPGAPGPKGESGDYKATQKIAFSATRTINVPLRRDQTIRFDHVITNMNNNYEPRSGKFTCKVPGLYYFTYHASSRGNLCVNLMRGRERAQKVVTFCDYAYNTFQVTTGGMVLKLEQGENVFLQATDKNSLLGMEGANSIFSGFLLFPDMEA
Sequence of C1q complement (Calbiochem) (P02747 29-245, chain 3 of 3, further chain): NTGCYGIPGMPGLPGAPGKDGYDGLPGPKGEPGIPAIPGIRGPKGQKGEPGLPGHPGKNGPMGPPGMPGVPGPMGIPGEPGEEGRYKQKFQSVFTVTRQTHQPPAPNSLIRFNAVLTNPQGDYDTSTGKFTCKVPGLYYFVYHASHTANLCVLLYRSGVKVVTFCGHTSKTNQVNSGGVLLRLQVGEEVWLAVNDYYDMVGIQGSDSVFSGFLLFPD

R593 anti-RhD+ IgG1 variant 256N/294Del/378V/383N/434Y (antibody)
pKd [1]: 8.37 | Ratio/IgG-WT [2]: 7.48 | Ratio/IgG-WT [3]: 0.17 | Ratio/IgG-WT [4]: 0.27 | Ratio/IgG-WT [5]: 0.17 | Ratio/IgG-WT [6]: 0.1 | Ratio/IgG-WT [7]: 0.12 | Ratio/IgG-WT [8]: 0.1 | Ratio WT/IgG (KD) [9]: 44.9 | ADCC EC50 (ng/ml), lysis of RhD+ red cells (Fcγ receptors): 75.9 ng/mL | ADCC Max. Lysis (%) (Fcγ receptors): 6% | ratio to the IgG1 without 294Del [10]: 1 | ratio to the IgG1 without 294Del [11]: 0.17 | ratio to the IgG1 without 294Del [12]: 0.17 | ratio to the IgG1 without 294Del [13]: 0.16 | ratio to the IgG1 without 294Del [14]: 0.11 | ratio to the IgG1 without 294Del [15]: 0.05 | ratio to the IgG1 without 294Del [16]: 0.1 | Ag binding MFI (Arbitrary Unit) [17]: 44.7

R593 anti-RhD+ IgG1 variant 259I/294Del/315D/434Y (antibody)
pKd [1]: 7.69 | Ratio/IgG-WT [2]: 7.19 | Ratio/IgG-WT [3]: 0.1 | Ratio/IgG-WT [4]: 0.18 | Ratio/IgG-WT [5]: 0.12 | Ratio/IgG-WT [6]: 0.07 | Ratio/IgG-WT [7]: 0.13 | Ratio/IgG-WT [8]: 0.07 | Ratio WT/IgG (KD) [9]: 9.41 | ratio to the IgG1 without 294Del [18]: 0.91 | ratio to the IgG1 without 294Del [19]: 0.11 | ratio to the IgG1 without 294Del [20]: 0.13 | ratio to the IgG1 without 294Del [21]: 0.11 | ratio to the IgG1 without 294Del [22]: 0.07 | ratio to the IgG1 without 294Del [23]: 0.12 | ratio to the IgG1 without 294Del [24]: 0.07 | ADCC EC50 (ng/ml), lysis of RhD+ red cells (Fcγ receptors): 75.9 ng/mL | ADCC Max. Lysis (%) (Fcγ receptors): 4% | Ag binding MFI (Arbitrary Unit) [17]: 47.9

R603 anti-CD20 IgG1 variant 259I/294Del/315D/434Y (antibody)
pKd [1]: 7.55 | ratio to the IgG1 without 294Del [25]: 0.86 | ratio to the IgG1 without 294Del [26]: 0.08 | ratio to the IgG1 without 294Del [27]: 0.27 | ratio to the IgG1 without 294Del [28]: 0.06 | ratio to the IgG1 without 294Del [29]: 0.07 | ratio to the IgG1 without 294Del [30]: 0.09 | ratio to the IgG1 without 294Del [31]: 0.05 | Ratio/IgG-WT [32]: 2.87 | Ratio/IgG-WT [33]: 0.01 | Ratio/IgG-WT [34]: 0.13 | Ratio/IgG-WT [35]: 0.01 | Ratio/IgG-WT [36]: 0.34 | Ratio/IgG-WT [37]: 0.02 | Ag binding MFI (Arbitrary Unit) [38]: 96 | Ratio WT/IgG (KD) [39]: 3.54 | Ratio/IgG-WT [40]: 5.97 | Ratio/IgG-WT [41]: 0.08 | Ratio/IgG-WT [42]: 0.41 | Ratio/IgG-WT [43]: 0.07 | Ratio/IgG-WT [44]: 0.08 | Ratio/IgG-WT [45]: 0.1 | Ratio/IgG-WT [46]: 0.05 | ratio to the IgG1 without 294Del [47]: 0.66 | ratio to the IgG1 without 294Del [48]: 0.01 | ratio to the IgG1 without 294Del [49]: 0.1 | ratio to the IgG1 without 294Del [50]: 0.01 | ratio to the IgG1 without 294Del [51]: 0.41 | ratio to the IgG1 without 294Del [52]: 0.02
